Each block holds one molecule with its values, some of them ahead of it. Ends that are not written are not given here.
Tests used:
proteasome = target: T1, proteasome; test: Binding of PA28 carboxy-terminal peptides to the proteasome
T1 construct: from tissue
Source text: (§1) Therefore, this peptide or a compound with similar properties may be used to block the action of the proteasome in intact cells. Such a compound or analogs having similar binding activity may be used to control accelerated rates of intracellular protein degradation. The peptide has the sequence: Acetyl-KNFEKLKKPRGETKGMIY (SEQ ID NO. 3). The N-terminal lysine may be acetylated if needed for stability. […] Therefore, the C-terminal Ile-Tyr amino acids or their functional equivalents appear to be important for binding of the 18-mer to the proteasome and for inhibition of the activation of the proteasome by activating factors PA28 and PA700. An equivalent of the 18-mer may comprise less than 18 amino acids or may comprise functionally equivalent amino acid replacements which allow similar binding activity.

[1] = target: T2, proteasome activation by PA28; test: Inhibition of PA28-activated proteasome by carboxy-terminal peptide; format: biochemical; conditions: 0.5 μg proteasome, 1 μg PA28 (FIG. 26)
T2 construct: from tissue
Experimental: Proteasome activity in the absence of PA28 was 1.2 units/assays. Assays contained 0.5 μg of proteasome and 1 μg of PA28.
as §1

[2] = target: T3, proteasome activation by PA700; test: Inhibition of proteasome activation by PA700 by C18 peptide; format: biochemical; conditions: for inhibition of proteasome activation by PA700: FIG. 27; for effect of peptide alone on proteasome activity: no activator
T3 construct: from tissue
Experimental: Activation of the proteasome by PA700 was performed in the presence of the indicated concentrations of purified C18 peptide.
as §1

[3] = test system: proteasome (latent and active forms); conditions: cited from earlier work
[4] = listed as 18 amino acid peptide

binding to the proteasome (proteasome): does bind to it | inhibition of proteasome activation by PA28 [1]: inhibition of PA28-activated proteasome | effect of peptide alone on proteasome activity [2, 4]: does not activate the proteasome
Molecule: Acetyl-KNFEKLKKPRGETKGMIY (Ac-KNFEKLKKPRGETKGMIY) [C18, 18 amino acid peptide corresponding to the carboxyterminal 18 amino acids of PA28]
inhibition of proteasome activation by PA28 [1, 4]: competitively inhibits binding and activation of PA28 | inhibition of proteasome activation by PA700 [2]: competitively inhibits proteasome activation by PA700 | inhibition of proteasome activation by PA700 [2, 4]: competitively inhibits the binding and activation of proteasome activator, PA700 | effect of peptide alone on proteasome activity [2]: had no effect on baseline proteasome activity

B1: PI31: inhibitor protein of the proteasome purified from bovine red blood cells, Mr=31,000 subunit (protein, UniProt Q3SX30 2-270, looked up)
Proteasome inhibitor PI31 …: AGLEVLFASAAPAITCAQDALVCFLHWEVVTHGYYGLGAGDQPGPNDKKSELLPVEWNSNKDLYVLRYESKDGSRKLLVKAVTVENSMIINVLEHGSQQVSDLTLNLNDYIDSEHLVDFHRVYKNSEELRSRIVSGIITPIHEQWEKANLSPHREFPPATAREVDPLRIHPQHPHTSRQPTWCDPLGPFAVGGEDLDPFGCRRGGMIVDPLRSGFPRALIDPSSGLPNRLPPGAVPPGARFDPFGPIGTSPSGPNPDHLPPPGYDDMYL
inhibition of peptidase and protease activities of the proteasome [3]: inhibited all of the peptidase and protease activities of both the latent and active forms of the proteasome by a non-competitive mechanism
